± gives the uncertainty stated by the source.

The series can be described thus: self-splicing fitness, log relative to wild type (ln ratio); higher = more splicing; Tetrahymena group I intron in knt gene, E. coli kanamycin selection, DiMSum; sequences stand for … in CUCUCU…GGAGGGAAAAGUUAUCAGGCAUGCACCUGGUAGCUAGUCUUUAAACCAAUAGAUUGCAUCGGUUUAAAAGGCAAGACCGUCAAAUUGCGGGAAAGGGGUCAACAGCCGUUCAGUACCAAGUCUCAGGGGAAACUUUGAGAUGGCCUUGCAAAGGGUAUGGUAAUAAGCUGACGGACAUGGUCCUAACCACGCAGCCAAGUCCUAAGUCAACAGAUCUUCUGUUGAUAUGGAUGCAGUUCACAGACUAAAUGUCGGUCGGGGAAGAUGUAUUCUUCUCAUAAGAUAUAGUCGGACCUCUCCUUAAUGGGAGCUAGCGGAUGAAGUGAUGCAACACUGGAGCCGCUGGGAACUAAUUUGUAUGCGAAAGUAUAUUGAUUAGUUUUGGAGUACUCGUGGUCG
The essentials: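 The eight P1ex-region nucleotides of an intron in the knt kanamycin-resistance gene on pET-22b(+) were all randomised and the library put into E. coli BL21(DE3). Six replicate transformations were grown overnight at 37°C or 30°C on LB agar with or without 25 μg/mL kanamycin, together with 100 μg/mL carbenicillin, 50 μM IPTG and 0.2% rhamnose. Colonies were pooled and amplicon-sequenced on an Illumina HiSeq 2500. Fitness from DiMSum is the error-weighted combination of wild-type-normalised replicate fold changes, kanamycin over none.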

As to UUAUAGCAAUAUUACGGGAA, the “self-splicing fitness (ln)” value was -1.59 ± 0.29 (30 °C) and -1.26 ± 0.28 (37 °C).
On the same counts, the results for UUAUAGCAAUAUUACGGGCG are -1.4 ± 0.15 and -1 ± 0.2.
On the same counts, the results for UUAUAGCAAUAUUACGGUCA are -0.871 ± 0.13 and -0.305 ± 0.17.
Take UUAUAGCAAUAUUACGGUGG: the “self-splicing fitness (ln)” value is, setting by setting: (30 °C) -0.966 ± 0.11; (37 °C) -0.924 ± 0.12.
On the same counts, the results for UUAUAGCAAUAUUACGUAAG are -1.38 ± 0.08 and -0.386 ± 0.11.
On the same counts, the results for UUAUAGCAAUAUUACGUAUA are -2.29 ± 0.15 and -1.42 ± 0.13.
On the same counts, the results for UUAUAGCAAUAUUACGUAUG are -1.03 ± 0.12 and -0.187 ± 0.15.
UUAUAGCAAUAUUACGUGAG: the “self-splicing fitness (ln)” value by setting is: (30 °C) -1.2 ± 0.087; (37 °C) -0.672 ± 0.12.
On the same counts, the results for UUAUAGCAAUAUUACGUGGC are -3.14 ± 0.37 and -2.45 ± 0.39.
On the same counts, the results for UUCAAGCAAUAUUACGAACA are -2.07 ± 0.2 and -0.752 ± 0.13.
The corresponding values for UUCAAGCAAUAUUACGACUC are -1.98 ± 0.24 and -0.791 ± 0.22.
For UUCAAGCAAUAUUACGAGCG, the “self-splicing fitness (ln)” value was -1.3 ± 0.087 (30 °C) and -0.359 ± 0.099 (37 °C).
UUCAAGCAAUAUUACGAGGG: the “self-splicing fitness (ln)” value is -3.56 ± 0.23 (30 °C) and -1.91 ± 0.17 (37 °C).
The corresponding values for UUCAAGCAAUAUUACGAUAC are -2.1 ± 0.17 and -2.58 ± 0.48.
The corresponding values for UUCAAGCAAUAUUACGAUCC are -2.66 ± 0.27 and -1.55 ± 0.29.
On the same counts, the results for UUCAAGCAAUAUUACGAUCU are -1.59 ± 0.092 and -0.996 ± 0.089.
With UUCAAGCAAUAUUACGAUGU, the “self-splicing fitness (ln)” value (30 °C) was -2.21 ± 0.13 and the “self-splicing fitness (ln)” value (37 °C) was -1.31 ± 0.16.
The corresponding values for UUCAAGCAAUAUUACGCAUG are -2.8 ± 0.13 and -1.7 ± 0.16.
On the same counts, the results for UUCAAGCAAUAUUACGCUAU are -2.4 ± 0.15 and -1.63 ± 0.16.
On the same counts, the results for UUCAAGCAAUAUUACGCUCU are -1.37 ± 0.17 and 0.387 ± 0.21.
Turning to UUCAAGCAAUAUUACGGACC, the “self-splicing fitness (ln)” value was -2.45 ± 0.25 (30 °C) and -2.97 ± 0.21 (37 °C).
The corresponding values for UUCAAGCAAUAUUACGGUAG are -0.693 ± 0.096 and -0.128 ± 0.13.
In the case of UUCAAGCAAUAUUACGGUCC, the “self-splicing fitness (ln)” value runs as follows: (30 °C) -1.46 ± 0.25; (37 °C) -2.3 ± 0.42.
As to UUCAAGCAAUAUUACGUACA, the “self-splicing fitness (ln)” value (30 °C) is -0.901 ± 0.11 and the “self-splicing fitness (ln)” value (37 °C) is -0.478 ± 0.13.
For the sequence UUCAAGCAAUAUUACGUAUU, the “self-splicing fitness (ln)” value (30 °C) is -3.82 ± 0.17 and the “self-splicing fitness (ln)” value (37 °C) is -2.66 ± 0.16.
Take UUCAAGCAAUAUUACGUCUU: the “self-splicing fitness (ln)” value (37 °C) is -3.54 ± 0.33.
Take UUCAAGCAAUAUUACGUGCC: the “self-splicing fitness (ln)” value (30 °C) is -0.891 ± 0.15 and the “self-splicing fitness (ln)” value (37 °C) was -0.528 ± 0.17.
For UUCAAGCAAUAUUACGUUCC, the “self-splicing fitness (ln)” value (37 °C) is -1.79 ± 0.34.
For UUCAAGCAAUAUUACGUUGG, the “self-splicing fitness (ln)” value is, setting by setting: (30 °C) -2.28 ± 0.17; (37 °C) -1.66 ± 0.24.
With UUCAAGCAAUAUUACGUUUC, the “self-splicing fitness (ln)” value (30 °C) is -3.02 ± 0.13 and the “self-splicing fitness (ln)” value (37 °C) is -2.25 ± 0.18.
On the same counts, the results for UUCCAGCAAUAUUACGAACC are -2.74 ± 0.42 and 0.108 ± 0.43.
On the same counts, the results for UUCCAGCAAUAUUACGAGCA are -1.08 ± 0.098 and -0.767 ± 0.13.
On the same counts, the results for UUCCAGCAAUAUUACGAUGA are -0.211 ± 0.067 and 0.0453 ± 0.072.
Take UUCCAGCAAUAUUACGAUUG: the “self-splicing fitness (ln)” value is, setting by setting: (30 °C) -2.03 ± 0.12; (37 °C) -1.47 ± 0.16.
Regarding UUCCAGCAAUAUUACGCCCU, the “self-splicing fitness (ln)” value (37 °C) is -2.93 ± 0.49.
On to UUCCAGCAAUAUUACGCGAG, for which the “self-splicing fitness (ln)” value was -0.566 ± 0.082 (30 °C) and -0.29 ± 0.082 (37 °C).
On the same counts, the results for UUCCAGCAAUAUUACGCUCA are -0.327 ± 0.068 and 0.143 ± 0.089.
On the same counts, the results for UUCCAGCAAUAUUACGGAAU are -3.81 ± 0.26 and -2.77 ± 0.28.
The corresponding values for UUCCAGCAAUAUUACGGGCG are -0.245 ± 0.081 and 0.254 ± 0.097.
Take UUCCAGCAAUAUUACGGUAC: the “self-splicing fitness (ln)” value (30 °C) was -4.17 ± 0.24 and the “self-splicing fitness (ln)” value (37 °C) is -2.6 ± 0.23.
Consider UUCCAGCAAUAUUACGUAUG, for which the “self-splicing fitness (ln)” value is, setting by setting: (30 °C) -3.02 ± 0.13; (37 °C) -1.38 ± 0.14.
In the case of UUCCAGCAAUAUUACGUGCU, the “self-splicing fitness (ln)” value is -4.4 ± 0.34 (30 °C) and -3.29 ± 0.29 (37 °C).
The corresponding values for UUCCAGCAAUAUUACGUUUU are -3.74 ± 0.14 and -2.65 ± 0.16.
On the same counts, the results for UUCGAGCAAUAUUACGAAGA are -2 ± 0.29 and -1.36 ± 0.25.
On the same counts, the results for UUCGAGCAAUAUUACGAGGG are -3.94 ± 0.3 and -3.12 ± 0.37.
Turning to UUCGAGCAAUAUUACGAUCC, the “self-splicing fitness (ln)” value (30 °C) was -2.6 ± 0.49.
For UUCGAGCAAUAUUACGAUGU, the “self-splicing fitness (ln)” value by setting is: (30 °C) -3.71 ± 0.46; (37 °C) -2.7 ± 0.25.
The corresponding values for UUCGAGCAAUAUUACGCACA are -1.76 ± 0.25 and -1.45 ± 0.28.
As to UUCGAGCAAUAUUACGCUCG, the “self-splicing fitness (ln)” value is, setting by setting: (30 °C) -1.64 ± 0.25; (37 °C) -3.36 ± 0.42.
As to UUCGAGCAAUAUUACGCUGA, the “self-splicing fitness (ln)” value (30 °C) was -2.66 ± 0.45 and the “self-splicing fitness (ln)” value (37 °C) was -1.89 ± 0.44.
On the same counts, the results for UUCGAGCAAUAUUACGCUGG are -0.924 ± 0.28 and -1.02 ± 0.42.
Consider UUCGAGCAAUAUUACGCUUG, for which the “self-splicing fitness (ln)” value (30 °C) is -3.26 ± 0.41.
Regarding UUCGAGCAAUAUUACGGCAG, the “self-splicing fitness (ln)” value (30 °C) was -2.05 ± 0.17 and the “self-splicing fitness (ln)” value (37 °C) was -1.39 ± 0.19.
With UUCGAGCAAUAUUACGGCGA, the “self-splicing fitness (ln)” value reads like this: (30 °C) -2.23 ± 0.17; (37 °C) -0.638 ± 0.18.
On the same counts, the results for UUCGAGCAAUAUUACGGGAA are -1.74 ± 0.16 and -0.981 ± 0.15.
The corresponding values for UUCGAGCAAUAUUACGGGUG are -1.78 ± 0.074 and -1.42 ± 0.086.
With UUCGAGCAAUAUUACGGUGU, where the note is “37 °C”, the “self-splicing fitness (ln)” value is -3.35 ± 0.42.
Consider UUCGAGCAAUAUUACGUAGG, for which the “self-splicing fitness (ln)” value was -2.9 ± 0.2 (30 °C) and -1.52 ± 0.19 (37 °C).
The corresponding values for UUCGAGCAAUAUUACGUCUG are -2.57 ± 0.24 and -1.65 ± 0.22.
On to UUCGAGCAAUAUUACGUGGC, for which the “self-splicing fitness (ln)” value (30 °C) was -1.49 ± 0.48.
With UUCGAGCAAUAUUACGUUCA, the “self-splicing fitness (ln)” value (30 °C) was -1.99 ± 0.13 and the “self-splicing fitness (ln)” value (37 °C) is -1.15 ± 0.13.
Regarding UUCUAGCAAUAUUACGAGAU, the “self-splicing fitness (ln)” value was -3.95 ± 0.33 (30 °C) and -2.67 ± 0.34 (37 °C).
